{"source": "patent US20030032785", "about": "“High-affinity oligonucleotide ligands to vascular endothelial growth factor (VEGF)” (published 2003)", "target": "VEGF165 (vascular endothelial growth factor, 165 aa form) (Homo sapiens, UniProt P15692-4 P15692-4:27-191)", "sequence (P15692 other isoform, or with tags, fused parts or gaps)": "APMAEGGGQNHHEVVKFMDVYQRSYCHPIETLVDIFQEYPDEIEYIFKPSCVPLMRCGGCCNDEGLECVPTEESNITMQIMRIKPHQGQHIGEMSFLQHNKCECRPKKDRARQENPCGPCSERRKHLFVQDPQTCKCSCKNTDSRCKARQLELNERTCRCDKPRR", "assay": "filter", "settings": "tags: gift of N. Ferrara, Genentech; chain copies: 2 stated", "description": "Nitrocellulose Filter Binding Assays. Oligonucleotides bound to proteins can be effectively separated from the unbound species by filtration through nitrocellulose membrane filters (Yarus, M. and Berg, P. (1970) Anal. Biochem. 35:450-465; Lowary, P. T. and Uhlenbeck, O. C. (1987) Nucleic Acids Res. 15:10483-10493; Tuerk, C. and Gold, L. (1990) supra). Nitrocellulose filters (0.2 μm pore size, Schleicher and Schuell, Keene, N.H.) were secured on a filter manifold and washed with 4-10 ml of buffer; Following incubations of ³²P labeled RNA with serial dilutions of the protein for 10 min at 37° C. in buffer (PBS) containing 0.01% human serum albumin (HSA), the solutions were applied to the filters under gentle vacuum in […] aliquots and washed with 5 ml of PBS. The filters were then dried under an infrared lamp and counted in a scintillation counter.\nTo this end, certain ligands were synthesized and tested for binding affinity. The binding studies were performed using the protocols described in Example 1."}
{"binder": "ACCCUGAUGGUAGACGCCGGGGUG (ssRNA, 2'-NH2 at all C and U; G9,A12,A14 2:1 mixture 2'-OMe:2'-OH)", "note": "[NX-203]", "values": [{"measurement": "Kd", "result": 200, "unit": "pM"}]}
